Test results from paper PMC314469, “Protein Interaction Networks by Proteome Peptide Scanning” (PLoS Biology, 2004).

T1: Boi1 SH3 (BOI1_YEAST), P38041
T1 chain: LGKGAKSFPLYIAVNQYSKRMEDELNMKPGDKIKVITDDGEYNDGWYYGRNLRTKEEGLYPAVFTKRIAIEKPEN

T2: Yfr024 SH3 (LSB3_YEAST), P43603
T2 chain: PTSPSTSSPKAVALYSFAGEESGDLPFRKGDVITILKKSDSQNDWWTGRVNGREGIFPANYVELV

T3: Yhr016c SH3 (YSC84_YEAST), P32793
T3 chain: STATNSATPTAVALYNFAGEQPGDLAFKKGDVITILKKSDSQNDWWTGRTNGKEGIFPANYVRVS

T4: Boi2 SH3 (BOI2_YEAST), P39969
T4 chain: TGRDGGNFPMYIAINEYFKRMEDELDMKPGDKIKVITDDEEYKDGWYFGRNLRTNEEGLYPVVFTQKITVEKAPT

T5: Rvs167 SH3 (RV167_YEAST), P39743
T5 chain: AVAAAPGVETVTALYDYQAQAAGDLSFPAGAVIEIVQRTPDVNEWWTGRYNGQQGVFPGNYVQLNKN

T6: Myo5 SH3 (MYO5_YEAST), Q04439
T6 chain: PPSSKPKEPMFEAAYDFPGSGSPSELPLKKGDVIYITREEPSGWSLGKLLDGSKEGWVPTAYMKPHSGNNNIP


Experiments:
Experiment in all cases: SPOT array
[1] = target: T1, Boi1 SH3 (BOI1_YEAST), P38041
[2] = target: T2, Yfr024 SH3 (LSB3_YEAST), P43603
[3] = target: Sho1 SH3 (SHO1_YEAST), P40073
[4] = target: T3, Yhr016c SH3 (YSC84_YEAST), P32793
[5] = target: T4, Boi2 SH3 (BOI2_YEAST), P39969
[6] = target: T5, Rvs167 SH3 (RV167_YEAST), P39743
[7] = target: T6, Myo5 SH3 (MYO5_YEAST), Q04439

Sho1 SH3 (SHO1_YEAST), P40073, sequence (P40073 295-366): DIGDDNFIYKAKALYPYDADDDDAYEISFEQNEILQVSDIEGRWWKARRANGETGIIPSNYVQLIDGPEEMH

Row | Binder | normalised SPOT signal, Boehringer light units (BLU); mean over the file's lines of this peptide [1] | normalised SPOT signal, Boehringer light units (BLU); mean over the file's lines of this peptide [2] | normalised SPOT signal, Boehringer light units (BLU); mean over the file's lines of this peptide [3] | normalised SPOT signal, Boehringer light units (BLU); mean over the file's lines of this peptide [4] | normalised SPOT signal, Boehringer light units (BLU); mean over the file's lines of this peptide [5] | normalised SPOT signal, Boehringer light units (BLU); mean over the file's lines of this peptide [6] | normalised SPOT signal, Boehringer light units (BLU); mean over the file's lines of this peptide [7]
1 | QNGLRFNPDVPKLW [YDR449C 169-182] | 64.6 | 86.7 | 37.6 | 8.3 | 0 | 22.1 | 260
2 | QPPDRNLPSHPSSN [YGR143W 154-167] | 19.4 | 48.8 | 78.5 | 19.4 | 13.7 | 48.2 | 156
3 | QRLDRDKPHEPNGY [YDL076C 274-287] | 104 | 105 | 37.3 | 19.3 | 12 | 52 | 218
4 | QSEEKEKPKGPMAV [YIL122W 8-21] | 88.1 | 109 | 36.1 | 18.1 | 16.6 | 20.6 | 197
5 | QSINRSIPSAPYGA [YBL081W 84-97] | 37.4 | 178 | 44.4 | 42.2 | 122 | 89 | 208
6 | QSKTKPLPVEPASP [YCR030C 484-497] | 80.3 | 64.3 | 9780 | 65.4 | 5.9 | 90.1 | 122
7 | QTGSKTVPQAPQAP [YLR095C 762-775] | 45.3 | 6.6 | 37.7 | 28.7 | 17.8 | 56.5 | 62.9
8 | QTVIKTHPRIPKSE [YMR211W 94-107] | 213 | 134 | 67 | 63.7 | 17.1 | 9.1 | 186
9 | QVYEKTIPLFPPEI [YDR416W 606-619] | 11 | 9.3 | 31.6 | 5.4 | 3.6 | 22.8 | 153
10 | QWSKRIMPYIPGPV [YBR200W 345-358] | 123 | 1820 | 230 | 109 | 145 | 140 | 296
11 | RAGNREPPSTPSTL [YBR079C 874-887] | 705 | 212 | 135 | 31.9 | 18.7 | 77.6 | 274
12 | RDDVKRTPFIPESV [YPL093W 369-382] | 0 | 92 | 45.2 | 0 | 0 | 86.7 | 171
13 | REGPKSSPRGPLSP [YPR107C 40-53] | 3920 | 184 | 27.8 | 36.3 | 11.9 | 30.2 | 188
14 | REYIKSLPMYPAAP [YBL016W 257-270] | 150 | 102 | 5160 | 48 | 83.3 | 101 | 70.4
15 | RFSSRRAPIAPSGK [YMR031W-A 89-102] | 2030 | 2420 | 124 | 184 | 54.1 | 774 | 564
16 | RFWTRARPIDPNAY [YNL317W 375-388] | 487 | 4260 | 177 | 970 | 1230 | 1610 | 279
